Data reported in paper PMC3269305 (Journal of Molecular Biology, 2011).

Biological target: human eukaryotic translation initiation factor eIF4E (human, UniProt P06730 1-217)
Assay: crystal structure

Chain of human eukaryotic translation initiation factor eIF4E (P06730 whole entry): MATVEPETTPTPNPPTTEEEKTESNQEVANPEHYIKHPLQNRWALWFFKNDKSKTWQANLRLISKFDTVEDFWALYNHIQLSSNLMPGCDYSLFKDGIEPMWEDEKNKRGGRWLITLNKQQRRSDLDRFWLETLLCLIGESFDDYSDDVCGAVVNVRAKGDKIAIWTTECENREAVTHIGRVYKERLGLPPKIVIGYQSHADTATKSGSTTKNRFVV

binding result: binds
Binder: PGGTRIIYDRKFLMECRNSP [4EBP1 peptide (eIF4E binding site of human 4EBP1, residues 47-66)]
